In patent US20250059297A1:

B1: Sacituzumab govitecan antibody analog (antibody, INN chains, looked up, V domains shown)
VH: QVQLQQSGSELKKPGASVKVSCKASGYTFTNYGMNWVKQAPGQGLKWMGWINTYTGEPTYTDDFKGRFAFSLDTSVSTAYLQISSLKADDTAVYFCARGGFGSSYWYFDVWGQGSLVTVSS
VL: DIQLTQSPSSLSASVGDRVSITCKASQDVSIAVAWYQQKPGKAPKLLIYSASYRYTGVPDRFSGSGSGTDFTLTISSLQPEDFAVYYCQQHYITPLTFGAGTKVEIKR
B2: DS-1062 antibody analog (antibody, INN chains, looked up, V domains shown)
VH: QVQLVQSGAEVKKPGASVKVSCKASGYTFTTAGMQWVRQAPGQGLEWMGWINTHSGVPKYAEDFKGRVTISADTSTSTAYLQLSSLKSEDTAVYYCARSGFGSSYWYFDVWGQGTLVTVSS
VL: DIQMTQSPSSLSASVGDRVTITCKASQDVSTAVAWYQQKPGKAPKLLIYSASYRYTGVPSRFSGSGSGTDFTLTISSLQPEDFAVYYCQQHYITPLTFGQGTKLEIK

What was measured:
[1] = molecular target: human TROP2 (hTROP2) on cells (human); assay: flow cytometry, NCI-H292 cells (express HER2 and TROP2)
[2] = molecular target: human TROP2 (hTROP2) on cells (human); assay: flow cytometry, NCI-N87 cells (express HER2 and TROP2)
[3] = molecular target: human TROP2 (hTROP2) on cells (human); assay: cell-based or functional assay

human TROP2 (hTROP2) on cells (human), sequence (P09758 whole entry): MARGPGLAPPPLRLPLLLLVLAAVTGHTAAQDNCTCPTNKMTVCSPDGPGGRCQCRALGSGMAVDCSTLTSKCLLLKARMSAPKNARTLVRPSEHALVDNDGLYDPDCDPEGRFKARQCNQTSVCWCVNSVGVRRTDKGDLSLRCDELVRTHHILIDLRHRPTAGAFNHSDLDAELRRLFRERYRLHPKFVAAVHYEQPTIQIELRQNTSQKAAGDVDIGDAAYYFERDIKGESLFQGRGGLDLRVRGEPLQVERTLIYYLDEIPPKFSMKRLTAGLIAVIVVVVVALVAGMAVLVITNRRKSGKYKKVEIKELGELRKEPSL

Binder	flow cytometry test result (%) [1] [%]	flow cytometry test result (%) [2] [%]	endocytosis, direct detection: MFI [3]	endocytosis, direct detection: Percentage of Positive Population [3] [%]	endocytosis, indirect detection: MFI [3]	endocytosis, indirect detection: Percentage of Positive Population [3] [%]	endocytosis: MFI [3]	endocytosis: Percentage of Positive (%) [3] [%]
B1	97.4	98.7	16600	70.1	16100	72.2	23000	51.2
B2	–	–	–	–	–	–	21800	43.9
